The results in this text go back to US20170044238A1 (NATIONAL RESEARCH COUNCIL OF CANADA, published 2017).

Substitutions are numbered along the chain they refer to.

T1: human lysozyme (human, UniProt P61626 19-148)
T1 construct: Bought; passed through Superdex 75 before SPR
T1 sequence (looked up): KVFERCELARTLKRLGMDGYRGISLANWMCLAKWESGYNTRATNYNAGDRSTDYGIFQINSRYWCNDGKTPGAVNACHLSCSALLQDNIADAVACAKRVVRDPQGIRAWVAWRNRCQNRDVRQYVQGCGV

B1: HVHPC235 (antibody, V domains shown)
VH: QVQLVESGGGLIKPGGSLRLSCAASGFSVISESMTWVRQAPGKGLEWVSAISSSGGSTYYADSVKGRFTISRDNSKNTVHLQMNSLRADDTAVYYCAAKKIDGARYDYWGQGTMVTVSS
notes: Human VH single-domain antibody (wild-type), tested alone; tag not specified; also called HVHAmC235; HVHC235
B2: HVHAm302 (antibody, V domains shown)
VH: QVQLVESGGGLIKPGGSLRLSCAASGDTVSDESMTWVRQAPGKGLEWVSAISSSGGSTYYADSVKGRFTISRDNSKNTVYLQMNSLRAEDTAVYYCVTDNRSCQTSLCTSTTRSWGQGTMVTVSS
notes: Human VH single-domain antibody (wild-type), tested alone; monomer peak used for SPR; tag not specified
B3: HVHAm302S (antibody, V domains shown)
VH: B2 VH with S49C, I70C
notes: Cys49/Cys69 (Kabat) mutant of HVHAm302; VH single-domain antibody; tag not specified
B4: HVHP428S (antibody, V domains shown)
VH: QLQLQESGGGLVQPGGSLRLSCAASGFTFSSYAMSWFRQAPGKGLEWVCFIRSKAYGGTTEYAASVKGRFTCSRDDSKSIAYLQMNSLRAEDTAMYYCARRAKDGYNSPEDYWGQGTLVTVSS
notes: Cys49/Cys69 (Kabat) mutant of HVHP428; VH single-domain antibody; tag not specified
B5: HVHP413S (antibody, V domains shown)
VH: QVQLVQSGGGLVKPGGSLRLSCAASGFTFSDYYMSWVRQAPGKGLEWVCFIYSGGSTYYADSVKGRFTCSRDNSKNTLYLQMNSLRAEDTAVYYCARESRVGGGAFDIWGQGTMVTVSS
notes: Cys49/Cys69 (Kabat) mutant of HVHP413; VH single-domain antibody; tag not specified
B6: HVHP421S (antibody, V domains shown)
VH: QLQLQESGGGVVQPGRSLRLSCAASGFTFSSYAMSWVRQAPGKGLEWVCAISGSGGSTYYADSVKGRFTCSRDNSKNTLYLQMNSLRAEDTAVYYCAKDGKGGSSGYDHPDYWGQGTLVTVSS
notes: Cys49/Cys69 (Kabat) mutant of HVHP421; VH single-domain antibody; tag not specified
B7: HVHB82S (antibody, V domains shown)
VH: QVQLQESGGGLVQPGGSLRLSCAASGFTFSSYAMSWVRQAPGKGLEWVCAISGSGGSTYYADSVKGRFTCSRDNSKNTLYLQMNSLRAEDTAVYYCGTDMEVWGKGTTVTVSS
notes: Cys49/Cys69 (Kabat) mutant of HVHB82; VH single-domain antibody; tag not specified
B8: HVHM41S (antibody, V domains shown)
VH: QVQLVQSGGGLVQPGRSLRLSCAASGFAFSSYAMSWVRQAPGKGLEWVCAISGGGDHTYYADSVKGRFTCSRDNSKNTLYLQMNSLRAEDTAVYYCAKEGMVRGVSSAPFDYWGQGTLVTVSS
notes: Cys49/Cys69 (Kabat) mutant of HVHM41; VH single-domain antibody; tag not specified
B9: HVHAm431 (antibody, V domains shown)
VH: QVQLVESGGGLIKPGGSLRLSCAASGYTVSSECMGWVRQAPGKGLEWVSAISSSGGSTYYADSVKGRFTISRDNSKNTVYLQMNSLRAEDTAVYYCVRDSKNCHDKDCTRPYCSWGQGTMVTVSS
notes: Human VH single-domain antibody (wild-type), tested alone; tag not specified
B10: HVHAm431S (antibody, V domains shown)
VH: B9 VH with S49C, G55S, I70C
notes: Cys49/Cys69 (Kabat) mutant of HVHAm431; VH single-domain antibody; tag not specified
B11: HVHP426S (antibody, V domains shown)
VH: QVQLVQSGGGVVQPGRSLRLSCAASGFIVDGYAMHWVRQAPGQGLEWVCVTNNGGSTSYADSVKGRFTCSRDNSKNTVYLQMNSLRAEDTAVYYCARQSITGPTGAFDIWGQGTMVTVSS
notes: Cys49/Cys69 (Kabat) mutant of HVHP426; VH single-domain antibody; tag not specified
B12: HVHP419S (antibody, V domains shown)
VH: QLQLQESGGGLVQPGGSLRLSCAASGFTFSSYAMSWVRQAPGKGLEWVCAISGSGGSTYYADSVKGRFTCSRDNSKNSLYLQMNSLGAEDTAVYYCARSWSGSSYGGDLDSWGQGTLVTVSS
notes: Cys49/Cys69 (Kabat) mutant of HVHP419; VH single-domain antibody; tag not specified
B13: HVHP420S (antibody, V domains shown)
VH: QVQLVESGGGLVKPGGSLRLSCAASGFTFSNAWMTWVRQAPGKGLEWVCRIKTKTDGGTTDYAAPVKGRFTCSRDDSKNTLYLQMNSLKTEDTAVYYCTTDRDHSSGSWGQGTLVTVSS
notes: Cys49/Cys69 (Kabat) mutant of HVHP420; VH single-domain antibody; tag not specified
B14: HVHP430S (antibody, V domains shown)
VH: QVQLVESGGGLIKPGGSLRLSCAASGFTFSNYAMSWVRQAPGKGLEWVCAISSSGGSTYYADSVKGRFTCSRDNSKNTVYLQMNSLRAEDTAVYYCVREEYRCSGTSCPGAFDIWGQGTMVTVSS
notes: Cys49/Cys69 (Kabat) mutant of HVHP430; VH single-domain antibody; tag not specified
B15: HVHP414S (antibody, V domains shown)
VH: DVQLVQSGGGLVKPGGSLRLSCTASGFPFSNAWMSWVRQAPGKGLEWVCRITSKTDGGTTDYVAPVKGRFTCSRDDSKNTLYLQMNSLKTEDTAVYYCTTDQANAFDIWGQGTMVTVSS
notes: Cys49/Cys69 (Kabat) mutant of HVHP414; VH single-domain antibody; tag not specified
B16: HVHP429S (antibody, V domains shown)
VH: EVQLVESGGTLVQPGGSLRLSCAASGFTFINYAMSWVRQAPDKGLDWVCTISNNGGATYYADSVKGRFTCSRDNSNNTLYLQMNSLRPDDTAVYYCAKGPINTGRYGDWGQGTLVTVSS
notes: Cys49/Cys69 (Kabat) mutant of HVHP429; VH single-domain antibody; tag not specified
B17: HVHAm427 (antibody, V domains shown)
VH: QVQLVESGGGLIKPGGSLRLSCAASGVTLSPECMAWVRQAPGKGLEWVSAISSSGGSTYYADSVKGRFTISRDNSKNTVYLQMNSLRAEDTAVYYCVSCEGENAFWGQGTMVTVSS
notes: as for B9
B18: HVHAm427S (antibody, V domains shown)
VH: B17 VH with S49C, I70C
notes: Cys49/Cys69 (Kabat) mutant of HVHAm427; VH single-domain antibody; tag not specified
B19: HVLHLYS (antibody, V domains shown)
V domain: DIQMTQSPSSLSASVGDRVTITCQASQSIYSKLYWYQQKPGKAPKLLCFPASLLWSGVPSRFSCSGSGTDFTLTISNLQPEDFATYYCLQNAADPHRTFGHGTKVRL
notes: Anti-human lysozyme VL single-domain antibody from the HVLP324S library (Cys48/Cys64); not shown: C-terminal His6 tag
B20: HVLHLEM (antibody, V domains shown)
VL: DIQMTQSPSSLSASVGDRVTITCQASQGIEMFLQWYQQKPGKAPKLLCFAASTLQSGVPSRFSCSGSGTDFTLTISNLQPEDFATYYCVQPGVAPPPGTFGHGTKVTVL
notes: as for B19
B21: HVLHLNN (antibody, V domains shown)
VL: DIQMTQSPSSLSASVGDRVTITCSASQSINNRLYWYQQKPGKAPKLLCFPASFLFSGVPSRFSCSGSGTDFTLTISNLQPEDFATYYCQQSYSTPRTFGHGTKVTVL
notes: as for B19
B22: HVLHLDS (antibody, V domains shown)
VL: B21 VL with S24T, A25V, S28G, N30D, N31S, F53L, F55E
notes: as for B19
B23: HVLHLNE (antibody, V domains shown)
VL: B21 VL with S24D, N31E, F53I, F55T, Q89R, S91P, Y92R, T94G, R96S
notes: as for B19
B24: HVLHLQI (antibody, V domains shown)
VL: DIQMTQSPSSLSASVGDRVTITCRASQSIQIMLDWYQQKPGKAPKLLCFGASFLISGVPSRFSCSGSGTDFTLTISNLQPEDFATYYCRQTWTPPAPTFGHGTKVTVL
notes: as for B19
B25: HVLHLRN (antibody, V domains shown)
VL: DIQMTQSPSSLSASVGDRVTITCKASQGIRNRLYWYQQKPGKAPKLLCFPASILDSGVPSRFSCSGSGTDFTLTISNLQPEDFATYYCAQQPGLPNSRTFGHGTKVTVL
notes: as for B19
B26: HVLHLAQ (antibody, V domains shown)
VL: DIQMTQSPSSLSASVGDRVTITCGASQSIAQRLYWYQQKPGKAPKLLCFPASLLHSGVPSRFSCSGSGTDFTLTISNLQPEDFATYYCAQRASPPRPTFGHGTKVTVL
notes: as for B19

The first assay concerns the target T2, protein A (UniProt P38507 37-477).
T2 construct: Bought (Pierce); immobilized on CM5 chip by amine coupling; also called recombinant protein A
The assay is described as follows: SPR (Biacore 3000), VH over immobilized protein A. How it is done: Immobilizations were carried out at 50 μg/mL in 10 mM acetate buffer, pH 4.5, using the amine coupling kit supplied by the manufacturer (GE Healthcare). All measurements were carried out at 25° C. in HBS-EP buffer at a flow rate of 50 μL/min. Surfaces were regenerated by washing with the running buffer.
(In SPR one partner is held on a chip, and binding of the other changes the refractive index at the surface.)
On to B1, for which binding was put at a Kd of 300 nM.
Consider B2, for which the Kd (as a rule, the equilibrium constant for the complex coming apart) was determined as 3000 nM.
On the same count and under the same terms, for B3 the value was 10000 nM.
Still for that read-out and setting: for B4 the value was 1600 nM; for B5, 1500 nM.
On the same count and under the same terms, for B6 the value was 2800 nM.
Turning to B7, binding was characterised by a dissociation constant (Kd) of 1200 nM.
Molecule B8 had a Kd of 1500 nM.
Still for that read-out and setting: for B9 the value was 4000 nM.
Still for that read-out and setting: for B10 the value was 8000 nM.
On the same count and under the same terms, for B11 the value was 3400 nM; for B12, 4800 nM.
B13 returned a dissociation constant Kd of 2200 nM.
With B14, the dissociation constant Kd worked out at 7700 nM.
On the same count and under the same terms, for B15 the value was 1800 nM; for B16, 5500 nM; for B17, 1600 nM.
In the case of B18, binding was put at a Kd of 4000 nM.

The target of another assay is T2, protein A. The assay can be described thus: SPR (Biacore 3000), VH over immobilized protein A; value in parentheses obtained with higher concentration of monomer (footnote d). How it is done:
For mutant VHs (HVHP44S, HVHB82S, HVHP421S, HVHP419S, HVHP430S, HVHP429S, HVHM81S, HVHP428S, HVHP420S, HVHM41S, HVHP423S, HVHP413S, HVHP426S, and HVHP414S), approximately 1,170 RUs and 1,240 RUs of recombinant protein A and ovalbumin (reference protein), respectively, were immobilized on research grade sensor chip CMS. Immobilizations were carried out at 50 μg/mL in 10 mM acetate buffer (pH 4.5 for both protein A and ovalbumin) using the amine coupling kit supplied by the manufacturer. All measurements were carried out at 25° C. in HBS-EP buffer at a flow rate of 20 μL/min or 40 μL/min for HVHB82S, HVHP421S, HVHP429S, HVHM41S, HVHM81S, HVHP423S, HVHP413S, HVHP426S, and HVHP414S or HVHP44S, HVHP419S, HVHP430S, HVHP428S, and HVHP420S, respectively. The protein A binding property of the wild-type counterparts were determined previously (To et al 2005).
On to B8, for which the Kd worked out at 1.8 µM.
For the molecule B12, the Kd amounted to 3.2 µM.
Still for that read-out and setting: for B16 the value was 3.4 µM.

A further assay addresses T1, human lysozyme. The assay is described as follows: SPR (Biacore 3000), human lysozyme over immobilized VL. How it is done:
The affinities (KDs) of the anti-human lysozyme VLs to their antigen, human lysozyme, was also determined. The binding of human lysozyme to immobilized anti-human lysozyme VL binders was determined by surface plasmon resonance (SPR) using BIACORE 3000 (GE Healthcare). […] Immobilizations were carried out at concentrations of 10 μg/mL in 10 mM acetate at pH 4.5 using the amine coupling kit supplied by the manufacturer. Human lysozyme was passed through a Superdex 75 column (GE Healthcare) in HBS-EP buffer (10 mM HEPES, pH 7.4, 150 mM NaCl, 3 mM EDTA and 0.005% P20 surfactant) with flow rate of 0.5 mL/min to eliminate any possible aggregates prior to Biacore analysis. For the binding studies, analyses were carried out at 25° C. in 10 mM HEPES, pH 7.4 containing 150 mM NaCl, 3 mM EDTA and 0.005% surfactant P20. The flow rates used were 20 μL/min. For regeneration the surfaces were washed for 15 min with the running buffer. Data were analyzed with BIAevaluation 4.1 software. From the SPR profiles (FIG. 15), it can be seen that the anti-human lysozyme VLs indeed bind to their target antigen, lysozyme, confirming the binding results obtained by phage ELISA.
For B19, the Kd worked out at 6400 nM.
The same measure, in the same setting: for B20 the value was > 73000 nM.
Still for that read-out and setting: for B21 the value was 200 nM; for B22, 6100 nM; for B23, 60 nM.
As to B24, binding was put at a Kd of 2600 nM.
Same read-out and setting: for B25 the value was 50 nM; for B26, 200 nM.
